Measured values as given in patent US20050058639A1 (AstraZeneca / MedImmune, published 2005).

T1: recombinant human MCP-2 (human, UniProt P80075 24-99)
T1 construct: also called rhMCP-2
T1 sequence (looked up): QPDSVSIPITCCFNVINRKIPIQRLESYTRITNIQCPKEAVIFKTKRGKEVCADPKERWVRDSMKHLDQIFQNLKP

T2: human RANTES (human, UniProt P13501 24-91)
T2 construct: also called hRANTES
T2 sequence (looked up): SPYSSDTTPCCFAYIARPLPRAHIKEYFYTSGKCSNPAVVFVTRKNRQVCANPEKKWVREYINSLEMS

T3: human MIP-1-alpha (human, UniProt P10147 24-92, limits assumed)
T3 construct: also called hMIP-1-alpha
T3 sequence (looked up): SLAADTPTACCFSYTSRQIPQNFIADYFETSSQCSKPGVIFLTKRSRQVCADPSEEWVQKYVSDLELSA

T4: human GRO/MGSA (human, UniProt P09341 35-107)
T4 construct: also called hGRO/MGSA; GRO-alpha
T4 sequence (looked up): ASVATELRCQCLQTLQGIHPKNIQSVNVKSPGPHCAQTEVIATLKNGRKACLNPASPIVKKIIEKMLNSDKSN


How the values were obtained:
[1] = target: T1, recombinant human MCP-2; assay: ELISA, coated antigen
Protocol: (§1) Determining cross-reactivity of anti-MCP-1 antibodies with other chemokines. ELISA plates (Fisher Cat. No. 12-565-136) were coated with 50 μl/well of MCP-1, MCP-2, MCP-3, MCP-4, RANTES, GRO-alpha, MIP-1 alpha, eotaxin, rat MCP-1 and mouse JE (2 μg/ml) in coating buffer (0.1 M carbonate buffer, pH 9.6, NaHCO₃ 8.4 g/L, then incubated at 4° C. overnight. After incubation, the plates were washed with washing buffer (0.05% Tween 20 in PBS) three times. 200 μL/well blocking buffer (0.5% BSA, 0.1% Tween 20, 0.01% Thimerosal in 1×PBS) were added and the plates incubated at room temperature for 1 hour. After incubation, the plates were washed with washing buffer three times. 50 μL/well of hybridoma supernatants, and positive and negative controls (positive control was anti-MCP-1 antibody purchased from R&D Sciences, and negative control was an antibody to Keyhole Limpet Hemocyanin produced at Abgenix) were added and the plates incubated at room temperature for 2 hours. After incubation, the plates were washed three times with washing buffer. […] After incubation, the plates were washed three times with washing buffer and 100 μL/well of TMB (BioFX Lab. Cat. #TMSK-0 100-01) was added and the plates allowed to develop for about 10 minutes.

[2] = target: T5, human monocyte chemo-attractant protein-1 (MCP-1) (human, UniProt P13500 24-99); assay: ELISA, coated antigen
T5 construct: 76-residue recombinant protein from E. coli, bought (PeproTech); also called hMCP-1(MCAF); human MCP-1
Protocol: as §1

[3] = target: T6, recombinant human MCP-3 (human, UniProt P80098 24-99); assay: ELISA, coated antigen
T6 construct: also called rhMCP-3
Protocol: as §1

[4] = target: T7, human eotaxin (human, UniProt P51671 24-97); assay: ELISA, coated antigen
T7 construct: also called hEotaxin
Protocol: as §1

[5] = target: T8, recombinant mouse JE/MCP-1 (mouse, UniProt P10148 24-148); assay: ELISA, coated antigen
T8 construct: also called rmJE/MCP-1
Protocol: as §1

[6] = target: rat MCP-1 (rat, UniProt P14844 24-148); assay: ELISA, coated antigen
Protocol: as §1

[7] = target: T2, human RANTES; assay: ELISA, coated antigen
Protocol: as §1

[8] = target: T9, recombinant human MCP-4 (human, UniProt Q99616 24-98, limits assumed); assay: ELISA, coated antigen
T9 construct: also called rhMCP-4
Protocol: as §1

[9] = target: T3, human MIP-1-alpha; assay: ELISA, coated antigen
Protocol: as §1

[10] = target: T4, human GRO/MGSA; assay: ELISA, coated antigen
Protocol: as §1

[11] = target: T5, human monocyte chemo-attractant …; assay: cell-based or functional assay
[12] = target: T5, human monocyte chemo-attractant …; assay: ELISA, hybridoma supernatant on coated MCP-1
Protocol: Selection of candidate antibodies for ELISA. After 14 days of culture, hybridoma supernatants were screened for MCP-1-specific monoclonal antibodies. The ELISA plates (Fisher, Cat. No. 12-565-136) were coated with 50 μl/well of MCP-1 (2 μg/mL) in Coating Buffer (0.1 M Carbonate Buffer, pH 9.6, NaHCO₃8.4 g/L), then incubated at 4° C. overnight. After incubation, the plates were washed with Washing Buffer (0.05% Tween 20 in PBS) three times. 200 μl/well Blocking Buffer (0.5% BSA, 0.1% Tween 20, 0.01% Thimerosal in 1× PBS) were added and the plates incubated at room temperature for 1 hour. After incubation, the plates were washed with Washing Buffer three times. 50 μL/well of hybridoma supernatants, and positive and negative controls were added and the plates incubated at room temperature for 2 hours.
The positive control used throughout was XMG2 MCP-1 Group 1, footpad N160-7 and the negative control was XMG2 KLH Group 1, footpad L627-6. After incubation, the plates were washed three times with Washing Buffer. […] In the secondary screen, three sets of samples (positives in first screening) were screened, one set for hIgG detection, one set for hKappa detection, and one set for hlambda detection. After incubation, the plates were washed three times with Washing Buffer. 100 μL/well of TMB (BioFX Lab. Cat. #TMSK-0100-01) were added and the plates allowed to develop for about 10 minutes (until negative control wells barely started to show color), then 50 μL/well stop solution (TMB Stop Solution (BioFX Lab. Cat. #STPR-0100-01) were added and the plates read on an ELISA plate reader at wavelength 450 nm. The OD readings from the positive wells are presented in Table 9.

T8 sequence (P10148 24-148 limits assumed): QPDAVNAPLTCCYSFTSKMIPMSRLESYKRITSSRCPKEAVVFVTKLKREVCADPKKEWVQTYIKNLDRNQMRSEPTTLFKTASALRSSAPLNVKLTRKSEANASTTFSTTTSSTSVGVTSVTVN
T5 sequence (P13500 24-99): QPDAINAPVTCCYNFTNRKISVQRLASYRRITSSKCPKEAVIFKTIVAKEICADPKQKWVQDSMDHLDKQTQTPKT
T9 sequence (Q99616 24-98 limits assumed): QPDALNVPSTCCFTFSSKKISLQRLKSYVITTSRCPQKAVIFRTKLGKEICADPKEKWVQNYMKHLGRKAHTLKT
T6 sequence (P80098 24-99 limits assumed): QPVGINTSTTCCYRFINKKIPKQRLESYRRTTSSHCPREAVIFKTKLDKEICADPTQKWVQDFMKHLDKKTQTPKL
Chain of rat MCP-1 (P14844 24-148 limits assumed): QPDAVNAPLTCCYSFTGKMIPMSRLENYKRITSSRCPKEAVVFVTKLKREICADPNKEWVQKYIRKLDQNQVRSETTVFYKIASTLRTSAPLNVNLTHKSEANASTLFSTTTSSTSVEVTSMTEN
T7 sequence (P51671 24-97 limits assumed): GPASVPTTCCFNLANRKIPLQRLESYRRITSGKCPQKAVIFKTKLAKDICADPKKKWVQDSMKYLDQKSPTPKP

Binder | ELISA OD [1] [OD450] | ELISA OD [2] [OD450] | ELISA OD [3] [OD450] | ELISA OD [4] [OD450] | ELISA OD [5] [OD450] | ELISA OD [6] [OD450] | ELISA OD [7] [OD450] | ELISA OD [8] [OD450] | ELISA OD [9] [OD450] | ELISA OD [10] [OD450] | IC50 Ca++ Flux [11] [µg/mL] | IC50 Chemotaxis [11] [µg/mL] | ELISA OD-MCP-1 [12] [OD450]
anti-MCP-1 mAb 3.10.1 (antibody, V domains shown) VH: QVQLVQSGAEVKKPGASVKVSCKVSGYTLTELSMHWVRQAPGKGLEWMGGFDPEDGETIYAQKFQGRVMMTEDTSTDTAFMDLSSLRSEDTAVYYCATDDMLTPHYLYFGMDVWGQGTTVTVSS VL: DIQMTQSPSSLSASVGDRVTITCRASQGIRNDLGWYQQKPGKAPKRLIYATSSLQSGVPSRFSGSGSGTEFTLTISSLQPEDFATYYCLQHNTYPFTFGPGTKVDIKR | 0.845 | 0.71 | 0.167 | 0.306 | 0.054 | 0.045 | 0.04 | 0.042 | 0.043 | 0.042 | 0.3 | 0.25 | 3.63
anti-MCP-1 mAb 1.12.1 (antibody, V domains shown) VH: QVQLVQSGAEVKKPGASVKVSCKVSGYTLTELSMHWVRQAPGKGLEWMGGFDPEDGETIYAQKFQGRVTMTEDTSTDTAYMELSSLRSEDTAVYYCATNDFWSGYYNYWGQGTLVTVSS VL: not shown | 0.042 | 0.933 | 0.046 | 0.044 | 0.042 | 0.062 | 0.046 | 0.044 | 0.046 | 0.046 | 0.13 | 0.35 | 4
anti-MCP-1 mAb 1.13.1 (antibody, V domains shown) VH: QVQLVQSGAEVKKPGASVKVSCKVSGHTLTELSMHWVRQAPGKGLEWMGGFDPEDDETIYAQKFQDRVTMTEDTSTDTAYMELSSLRSEDTAVYYCATNDFWSGYFDCWGQGTLVTVSS VL: DIVLTQSPDSLAVCLGERATINCKSSQSVLYSPNNKNFLVWYQQRPGQPPKLLIYWASTRESGVPDRFSGSGSGTDFTLTISSLQAEDVAVYYCQQYYSSPWTFGQGTKVEIKR | 0.046 | 1.16 | 0.047 | 0.044 | 0.043 | 0.06 | 0.046 | 0.045 | 0.042 | 0.046 | 0.11 | 0.5 | 4
anti-MCP-1 mAb 1.2.1 (antibody, V domains shown) VH: QVQLVQSGAEVKKPGASVKVSCKVSGYTFTELSMHWVRQAPGKGLEWMGGFDPEDGETSYAQKFRGRVTMTEDTSTDTAHMELSSLRSEDTAVYYCATNDFWSGYFDYWGQGTLVTVSS VL: DIQMTQSPSSVSASVGDRVTITCRASQGIDIYLAWYQQKPGKAPKLLINAASSLQNGVPSRFGGSGSGTDFTLTISGLQPEDFATYYCQLTYFFPWTFGQGTKVEIKR | 0.056 | 1.16 | 0.048 | 0.044 | 0.041 | 0.044 | 0.04 | 0.055 | 0.04 | 0.044 | 0.18 | 0.24 | 3.47
anti-MCP-1 mAb 1.18.1 (antibody, human IgG2, kappa, V domains shown) VH: QVQLVQSGAEVKKPGASVKVSCKVSGYTLTELSMHWVRQAPGKGLEWMGGFDPEDGETIYAQKFQGRVTMTEDTSTDTVYMELSSLRSEDTAMYYCATREFWTGYFDHWGQGTLVTVSS VL: not shown | 0.04 | 1.23 | 0.045 | 0.043 | 0.044 | 0.058 | 0.04 | 0.045 | 0.043 | 0.049 | 0.18 | 0.29 | 0.998
anti-MCP-1 mAb 3.4.1 (antibody, V domains shown) VH: QVQLVQSGAEVKKPGASVKVSCKVSGYTLTELSMHWVRQAPGKGLEWMGGFDPEDGETMYAQKFQGRVTMTEDTSTDTAYMELSSLRSEDTAVYYCATDDFWSGYFDYWGQGTLVTVSS VL: DIVMTQSPDSLAVSLDERATINCKSSQSVLYSPNQKNYLVWYQQKPGQPPKLLLYWASIRESGVPDRFSGSGSGTDFTLTISSLQAEDVAVYYCQQSYFTPWTFGQGTKVEIKR | 0.042 | 1.15 | 0.05 | 0.048 | 0.044 | 0.053 | 0.046 | 0.047 | 0.055 | 0.065 | 0.24 | 0.51 | 3.86
anti-MCP-1 mAb 1.14.1 (antibody, V domains shown) VH: QVQAEQSGPGLVKPSQTLSLTCAISGDSVSSYSAAWNWIRQSPSRGLEWLGRTYYRSKWYSDHAVSVRSRITIYPDTSKNQFSLQLNSVTPEDTAVYYCARDRISGTYVGMDVWGQGTTVTVSS VL: not shown | 0.042 | 1.13 | 0.046 | 0.042 | 0.042 | 0.062 | 0.046 | 0.044 | 0.046 | 0.046 | 0.41 | 0.58 | 2.06
